T1: XAP3 cloned in-frame into pACT plasmid (UniProt Q9BYM8 1-510)
T1 sequence (looked up): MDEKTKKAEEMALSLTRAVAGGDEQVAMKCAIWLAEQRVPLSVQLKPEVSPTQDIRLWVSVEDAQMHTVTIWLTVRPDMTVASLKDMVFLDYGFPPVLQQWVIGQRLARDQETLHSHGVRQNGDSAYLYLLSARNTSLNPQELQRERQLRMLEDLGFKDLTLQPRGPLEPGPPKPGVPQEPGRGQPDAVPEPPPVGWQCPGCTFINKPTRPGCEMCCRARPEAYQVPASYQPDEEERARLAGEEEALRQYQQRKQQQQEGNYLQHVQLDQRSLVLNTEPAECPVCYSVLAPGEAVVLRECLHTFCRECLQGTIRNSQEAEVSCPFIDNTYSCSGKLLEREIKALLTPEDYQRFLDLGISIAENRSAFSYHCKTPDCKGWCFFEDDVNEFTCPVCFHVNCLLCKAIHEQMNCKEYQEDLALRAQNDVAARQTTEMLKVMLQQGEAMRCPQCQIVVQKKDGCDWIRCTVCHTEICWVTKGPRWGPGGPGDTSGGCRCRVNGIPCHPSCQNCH

T2: USP19 cloned in-frame into pACT plasmid (UniProt O94966 1-1318)
T2 sequence (looked up): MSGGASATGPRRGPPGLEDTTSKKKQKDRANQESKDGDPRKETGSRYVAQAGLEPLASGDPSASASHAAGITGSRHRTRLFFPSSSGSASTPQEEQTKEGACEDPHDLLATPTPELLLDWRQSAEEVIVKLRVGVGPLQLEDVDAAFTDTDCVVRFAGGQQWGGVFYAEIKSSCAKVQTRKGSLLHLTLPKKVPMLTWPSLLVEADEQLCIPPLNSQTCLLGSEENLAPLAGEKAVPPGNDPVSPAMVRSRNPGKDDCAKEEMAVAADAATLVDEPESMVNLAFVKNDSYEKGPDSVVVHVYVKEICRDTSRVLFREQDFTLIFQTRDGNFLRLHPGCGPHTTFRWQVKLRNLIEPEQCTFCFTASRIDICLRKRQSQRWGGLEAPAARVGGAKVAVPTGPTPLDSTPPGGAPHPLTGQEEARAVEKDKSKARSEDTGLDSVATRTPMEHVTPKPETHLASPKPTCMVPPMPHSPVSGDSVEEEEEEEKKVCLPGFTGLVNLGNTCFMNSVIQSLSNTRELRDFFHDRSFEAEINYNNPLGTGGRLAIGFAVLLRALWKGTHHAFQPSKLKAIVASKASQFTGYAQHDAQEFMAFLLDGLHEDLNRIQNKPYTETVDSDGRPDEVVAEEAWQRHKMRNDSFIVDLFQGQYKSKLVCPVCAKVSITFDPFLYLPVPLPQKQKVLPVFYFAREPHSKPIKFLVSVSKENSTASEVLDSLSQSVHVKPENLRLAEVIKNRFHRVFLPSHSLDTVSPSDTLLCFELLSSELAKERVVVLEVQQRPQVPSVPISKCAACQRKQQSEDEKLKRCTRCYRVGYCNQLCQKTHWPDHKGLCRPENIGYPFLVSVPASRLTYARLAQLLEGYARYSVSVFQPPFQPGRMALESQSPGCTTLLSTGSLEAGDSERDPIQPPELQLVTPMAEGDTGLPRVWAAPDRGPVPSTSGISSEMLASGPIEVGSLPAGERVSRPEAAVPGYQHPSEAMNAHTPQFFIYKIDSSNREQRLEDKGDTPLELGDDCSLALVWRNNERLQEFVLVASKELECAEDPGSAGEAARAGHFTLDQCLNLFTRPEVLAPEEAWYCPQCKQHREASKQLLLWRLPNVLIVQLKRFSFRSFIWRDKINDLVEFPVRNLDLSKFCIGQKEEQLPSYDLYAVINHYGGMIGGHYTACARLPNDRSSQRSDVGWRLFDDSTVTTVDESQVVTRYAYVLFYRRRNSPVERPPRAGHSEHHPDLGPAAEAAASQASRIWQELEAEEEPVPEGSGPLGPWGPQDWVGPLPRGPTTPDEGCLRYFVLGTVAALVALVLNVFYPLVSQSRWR


How the values were obtained:
[1] = target: T1, XAP3 cloned in-frame into pACT plasmid; experiment: cell-based or functional assay
[2] = target: T2, USP19 cloned in-frame into pACT plasmid; experiment: cell-based or functional assay
[3] = target: T1, XAP3 cloned in-frame into pACT plasmid; experiment: mammalian two-hybrid (firefly luciferase) in L132 cells
Protocol: In order to confirm the interactions detected using the yeast two-hybrid system and determine that the interaction can take place in a biologically relevant model, the Checkmate Mammalian Two-Hybrid System (Promega, Cat no. E2440) was used. Full length FKBPL and a variety of FKBPL mutants were cloned ‘in-frame’ into pBIND plasmid according to manufacturer's instructions. XAP3 and USP19 were cloned ‘in-frame’ into pACT plasmid according to manufacturer's instructions. 2×10⁴ L132 cells were plated in triplicate into a 96 well plate for each transfection condition and incubated overnight at 37° C. with MEM containing 10% FCS. FKBPL, XAP3 and USP19 plasmids were transfected into cells using Lipofectamine Plus (Invitrogen, Cat no.) and incubated at 37° C. for 24 h. The plate was allowed to equilibrate to room temperature then 75 μl room temperature Dual-Glo Luciferase Reagent (Promega, Cat no. E2920) was added to each well, mixed thoroughly and wrapped in tinfoil. After 15 minutes incubation at room temperature, the Firefly luminescence was measured using a GENios platereader (Tecan). […] After 15 minutes incubation at room temperature, the Renilla luminescence was measured.
Following correction, increased firefly luminescence over self-activations controls indicated a positive interaction between the proteins.

Row | Binder | induction of firefly luminescence [1] | induction of firefly luminescence [2] | binding result [3]
1 | Full length FKBPL cloned in-frame into pBIND plasmid (other, not shown: large carriers) METPPVNTIGEKDTSQPQQEWEKNLRENLDSVIQIRQQPRDPPTETLELEVSPDPASQILEHTQGAEKLVAELEGDSHKSHGSTSQMPEALQASDLWYCPDGSFVKKIVIRGHGLDKPKLGSCCRVLALGFPFGSGPPEGWTELTMGVGPWREETWGELIEKCLESMCQGEEAELQLPGHSGPPVRLTLASFTQGRDSWELETSEKEALAREERARGTELFRAGNPEGAARCYGRALRLLLTLPPPGPPERTVLHANLAACQLLLGQPQLAAQSCDRVLEREPGHLKALYRRGVAQAALGNLEKATADLKKVLAIDPKNRAAQEELGKVVIQGKNQDAGLAQGLRKMFG | 20 fold | 10 fold | –
2 | FKBPLΔ200 (other, not shown: large carriers) METPPVNTIGEKDTSQPQQEWEKNLRENLDSVIQIRQQPRDPPTETLELEVSPDPASQILEHTQGAEKLVAELEGDSHKSHGSTSQMPEALQASDLWYCPDGSFVKKIVIRGHGLDKPKLGSCCRVLALGFPFGSGPPEGWTELTMGVGPWREETWGELIEKCLESMCQGEEAELQLPGHSGPPVRLTLASFTQGRDSWE | – | – | no binding

— patent publication US20120115830A1 (QUEEN S UNIVERSITY OF BELFAST, published 2012)
